Where “and” joins values, the source holds several entries; their conditions need not be identical. Identical values can stand only once.

Assay [1] deals with huPrP(23−144) (human) (UniProt P04156). Nature of the assay: NMR titration.
Assay [2] shares this target. Put plainly: co-sedimentation.

For the substance “α-synuclein oligomers (from UniProt P37840 1-140) (complex)”, the stoichiometry N (αSyn:huPrP molar ratio) with huPrP(23−144) (human) [1] is 1.45 and 0.92. In the assay with huPrP(23−144) (human) [2], this substance gave a stoichiometry N (αSyn:huPrP(23−144)) of 0.96.

(Values after article PMC7347944.)
